Data published in patent US9809833B2, “Pathways to adipate semialdehyde and other organic products” (BioAmber Inc., priority 2012, dated 2017).

B1: phaA: acyltransferase, E. coli optimized PhaA sequence originally from Ralstonia sp., EC 2.3.1.9, SEQ ID NOS 3 and 4 (protein)
chain: MTDVVIVSAARTAVGKFGGSLAKIPAPELGAVVIKAALERAGVKPEQVSEVIMGQVLTAGSGQNPARQAAIKAGLPAMVPAMTINKVCGSGLKAVMLAANAIMAGDAEIVVAGGQENMSAAPHVLPGSRDGFRMGDAKLVDTMIVDGLWDVYNQYHMGITAENVAKEYGITREAQDEFAVGSQNKAEAAQKAGKFDEEIVPVLIPQRKGDPVAFKTDEFVRQGATLDSMSGLKPAFDKAGTVTAANASGLNDGAAAVVVMSAAKAKELGLTPLATIKSYANAGVDPKVMGMGPVPASKRALSRAEWTPQDLDLMEINEAFAAQALAVHQQMGWDTSKVNVNGGAIAIGHPIGASGCRILVTLLHEMKRRDAKKGLASLCIGGGMGVALAVERK
modifications: Ralstonia sp., strain EMBL EON20543.1
B2: bktB: Beta-ketothiolase, E. coli optimized bktB sequence originally from Cupriavidus necator ATCC 17699, SEQ ID NOS 1 and 2 (protein)
chain: MTREVVVVSGVRTAIGTFGGSLKDVAPAELGALVVREALARAQVSGDDVGHVVFGNVIQTEPRDMYLGRVAAVNGGVTINAPALTVNRLCGSGLQAIVSAAQTILLGDTDVAIGGGAESMSRAPYLAPAARWGARMGDAGLVDMMLGALHDPFHRIHMGVTAENVAKEYDISRAQQDEAALESHRRASAAIKAGYFKDQIVPVVSKGRKGDVTFDTDEHVRHDATIDDMTKLRPVFVKENGTVTAGNASGLNDAAAAVVMMERAEAERRGLKPLARLVSYGHAGVDPKAMGIGPVPATKIALERAGLQVSDLDVIEANEAFAAQACAVTKALGLDPAKVNPNGSGISLGHPIGATGALITVKALHELNRVQGRYALVTMCIGGGQGIAAIFERI
modifications: Cupriavidus necator

Tests used:
[1] = In vitro DTNB thiolase activity assay on clarified cell lysates, crotonoyl-CoA substrate; format: biochemical; conditions: lysate of BL21 E. coli expressing the thiolase; 0.5 mM crotonoyl-CoA, 0.2 mM acetyl-coA, 0.5 mM DTNB, pH 7.4, 412 nm; 60 sec incubation before measurement; no-substrate background subtracted; triplicate
Method: (§1) Plasmids containing the optimized thiolase genes were transformed into BL21 E. coli cells. Empty plasmid pTrcHisA was also transformed as a negative control. For expression and characterization experiments, shake flasks containing 40 mL TB were innoculated at 5% from overnight cultures. Flasks were incubated at 30° C. at 250 rpm shaking for 2 hours, then protein production was induced with 0.2 mM IPTG and incubated for 4 more hours at 30° C. while shaking. Cells were harvested by centrifugation and pellets were stored at −80° C.
(§2) Activity of thiolase candidates were assessed with an in vitro assay using DTNB (5,5′-Dithiobis(2-nitrobenzoic acid)) as an indicator. The enzyme activity was tested using two different substrates: crotonoyl-CoA and butyryl-CoA. The DTNB interacts with the free thiol created by the condensation of acetyl-CoA and the substrate present (butyryl-CoA or crotonoyl-CoA). Unless otherwise specified, all chemicals were purchased from Sigma-Aldrich Chemical Company, ST. Louis, Mo.
(§3) Cells were lysed using mechanical disruption using a BeadBeater (BioSpec products, Bartlesville, Okla.) using the manufacturer's instructions. The cell lysate was partially clarified by centrifugation (14,000 G for 5 minutes). Protein concentrations of the resulting clarified lysates were measured via BioRad Total Protein assay using the manufacturer's instructions. Lysates were normalized by protein concentration by dilution in 10 mM Tris buffer. The normalized lysates were diluted 1 to 5 in 10 mM Tris buffer. 20 ul of lysate was added to each well for the 96-well plate assay. Each condition was performed in triplicate.
(§4) The reaction mixture contains 10 mM Tris pH 7.4, 5 mM MgSO4, 0.2 mM acetyl-coA, 0.5 mM DTNB, 0.5 mM substrate (either butyryl-CoA or crotonoyl-CoA). […] The reactions in these microplates were monitored at 412 nm. Readings were taken every 9 seconds for 5 minutes and the data was used to calculate activities of each enzyme. The reactions using crotonoyl-CoA as substrate required a 60 sec incubation period before rates were able to be measured.

[2] = In vitro DTNB thiolase activity assay on clarified cell lysates, butyryl-CoA substrate; format: biochemical; conditions: lysate of BL21 E. coli expressing the thiolase; 0.5 mM butyryl-CoA, 0.2 mM acetyl-coA, 0.5 mM DTNB, pH 7.4, 412 nm; no-substrate background subtracted; triplicate
Method: as §1, §2, §3, §4

Molecule | Average Activity with background subtracted, Crotonoyl coenzyme A [1] [µmol/min/mg] | Average Activity with background subtracted, Butyryl coenzyme A [2] [µmol/min/mg]
thl: acetyl-CoA acetyltransferase, E. coli optimized thl sequence originally from Clostridium acetobutylicum ATCC 824, SEQ ID NOS 5 and 6 | 0.0021 | 0.039
B1 | 0.0001 | 0.053
B2 | 0.0043 | 0.069
